Data as given in publication PMC3251568.

Target: c-Abl (UniProt P00519)
Assay: anti-c-Abl IP, FLAG-PCNA western
Details: reference: wild-type FLAG-PCNA; sites Y211

binding against the reference: weaker
Substance: PCNA (proliferating cell nuclear antigen) (from UniProt P12004) Y211F FLAG-PCNA
